Data taken from the DeepSol protein solubility set.

Experiment: soluble on expression in E. coli; label from the status in PepcDB or PDB records

Row | Sequence | soluble on expression in E. coli
1 | MAEITEKVLKKPNAIPDVFERKGGSAPTATHYCAGCGHGIIHKLMAEAIDELEIQDRCVLISPVGCAVFAYYYFDCGNIQVAHGRAPAVGTGVSRAEDNAIVMSYQGDGDLASIGLNETIQAANRGEKMAVFFVNNTVYGMTGGQMAPTTLIGEKTVTCQTGRDPRFAGYPIHMCELLSSLKAPVFIERVSVSDIAHIRKAKRAIKKALEIQRDGKGYAFVEILSPCPTNLRQDANAAQKFINEEMEKEFPLQNFRDRSAEVETLNRGESDFSKECLDNIFEVNSKGAEDPSEDLSFE | not soluble
2 | RVASNLDNKARVTELFKSAYSILTEVEKMAVEGKMPEEEAKALATRLLRNNIYKDNEYVYVADENMMFIAAPLDPQLHGTSFHDFKDGSGNSVGQ | not soluble
3 | MGSDKIHHHHHHMILQVQPAKLIKRYKRFLADIELNCGEETTIHCANTGAMKGCAEPDDTVWYTTSTNTKRKYPFSWEITQSQDDHFICVNTLRANQLVEEALHLDLIKELSGFNELKREVKYGNENSRVDFLATYNNAPDTYIEVKSVTLLESGHGYFPDAVTTRGQKHLRELMDMVAQGHKAVLLFAVLHSGINDISAASHVDPIYAKLLKEARLAGVEIIAYKAGFSLQLGELDVKLVEKIPFIER | not soluble
4 | MFTIRKARIDDCGLINQMAGEVFPATYQEILSPGQLDYMMDWMYSPENIRKQMEEEGHVYFIAYEGDEPCGYVSVQQQEENVFHLQKIYVLPHFQGAHCGSFLFREAVRYIKEVHPEPCLMELNVNRNNKALLFYERMGMRKLREGDFPIGNGYYMNDYIMGLDI | not soluble
5 | MTENERAHADHASASPQRTRRRRGKPRRRMDSGASTQGGGASKSAAPSSSTSGSRGERGSRGDDKDKQNKHTRRKRRPAHRSTQRGSHGGDSSNSGSGIKRRRHTGNKNRGNQSRRQNNRSSRITTRDETSAGGLVISGLAEAVDENNNVDLSRIYVALIGRL | not soluble
6 | MSLDFAKQGPIVIGGVGGSGTRLIAEIVMDMGFYLGGMLNQSKDLLYFSLLFKRPTWFSKVVTSNEQEIFRGLKILENRLTTQKELTGKDIKFIEKAAQTYRNGDLLAQKIKKNMLFPDPINRQLYRGWGWKEPNAHLFLPYIHRYFPNGKYIHVIRNGLNMAFSKNQQQLFNWGPLFGVTIPNNPMKIPNASLTYWIKANERAVMYGTEQMKGRFLLIQFDQLCVNPTPQLQKLAEFLAVDDLAIDEWSEKIDPAAAASKYKEGHHHHHH | soluble
7 | MRFAVLGSGSRGNGTLVASNDTYVLVDCGFSLRETERRLARLGVAASQLSAILVTHEHADHVHGVGLLSRRYNVPVYLSSGTLRGMRKPVEVAGLLAGGESLQIGALDIDVVSVAHDALEPTQFVFSDGSRRFGLLTDLGSYCSNVLQRYQGLDALMIEANHCRDMLARGQYPVFLKQRVGCETGHLNNHQAASLVSELGWQDLQHLVLAHLSSKNNLPHLARQCFVDTLGCDPDWLQLADQDSGLDWRHIALEHHHHHH | not soluble
8 | MGSDKIHHHHHHMMGEFEAIRPYSDAEVPAVLQRLLSDDAFLGALVRYRFPRLAGPLGWLLKPLIAHRLAREVTGIRSVATLQDKFEPYVDHTIEKATDGVTYSGVNRLKPGCAYLFIANHRDIVMDPAFVNYAVYHAGLPTPRIAIGDNLLQKSFVSDLMRLNKSFIVHRSLSGRREKLAAYQTLSAYINHSIREDRQSVWIAQAEGRAKDGDDRTDSAILKMFHMSRKDEPFAEMVRALHFIPVSISYEYDPCDLAKARELHTRASTGEYRKAPGEDDASIALGITGYKGRVHINFGAELEGEFSDAKQLAAELDRQILGNYRLFPVHYLAYEMSENRDPGLAVPTAESLFGSEELEKARKEWNRRLEQCPAEQRSWLVLQYANPVLNQYRIKQQS | not soluble
9 | MDDIIQQLFKEVERPQLTVNEQALQQYLYREIVRLTLLVEPTISKPQIIGLLSALVKKARHYVNADNQAECIQQLLDLVYQEWRFHCDYQEYFYTDNLLLHRVIRSHRGMPLSIGAIVLYLAAKLQLPIYPVNFPTQLILRAEITESSGKKTVRFINPWDGQFLPLELLLKWLEGEVGYGVELSPELLRRADPAELLERVETVFKMVLTREGKYEQTLRLIEYRLAENPDDPYEIRDRGMVLASMDCYQAAYDDLSYFIDQCPDDPSAAILKSEVKGLEQKSKQNQVHLEHHHHHH | soluble
10 | MGSDKIHHHHHHMKIAVLNQKGGSGKTTVSIHLAHAFSMIGYRVLLVDTDPQGSTRDWAAARNGEAPFSVIGLDRPILHKELPKLAQGYDFVFIDGAPRVSDLTRSAIMAVDFVLVPVQPSPLDVWAVHEVVELVQEATIYKPDLTAAFLINRKIANTALGREVTEVLGEYPFPVLKAQISQRVAFAECLNIGSTVLEAAPKSAASDEVRAVVEEILEAREETNHGRS | not soluble
11 | MPIPNNPGAGENAFDPVFVNDDDGYDLDSFMIPAHYKKYLTKVLVPNGVIKNRIEKLAYDIKKVYNNEEFHILCLLKGSRGFFTALLKHLSRIHNYSAVETSKPLFGEHYVRVKSYCNDQSTGTLEIVSEDLSCLKGKHVLIVEDIIDTGKTLVKFCEYLKKFEIKTVAIACLFIKRTPLWNGFKADFVGFSIPDHFVVGYSLDYNEIFRDLDHCCLVNDEGKKKYKATSL | soluble
12 | MATQMRLTDTNLLEVLNSEEYSGVLKEFREQRYSKKAILYTPNTERNLVFLVKSGRVRVYLAYEDKEFTLAILEAGDIFCTHTRAFIQAMEDTTILYTDIRNFQNIVVEFPAFSLNMVKVLGDLLKLLLTIINGLVFKDARLRLAEFLVQAAMDTGLKVPQGIKLELGLNTEEIALMLGTTRQTVSVLLNDFKKMGILERVNQRTLLLKDLQKLKEFSSGV | soluble
13 | MPNELSRSLSPYLLMHANDPVEWRMWSKETLRIATEENRLIFLSIGYSSCHWCHVMHEESFVDPDVAEILNNNYIPVKVDREERPDLDSYFMKVSQVINGNGGWPLNIILLPDARPVFAMTYVPKEDRNGMTGLKTILIQLSQMYLKDPDQFKDQAKAVSDAMEERESV | soluble
14 | MSDGSMDDDGRLFPDLGSSTHDNREIRVRFLNRCAYPVDVFWLNPSKQPTKYGTLAQKKYLDIKTFKDHPWVARRSFDGCKVLVNEKEVFWPEPAPRMNLIVRNHCVITMKVQSLREIAGRSFLRHNPTEVPNKIKGLPRELQFEVKHFLDRKQEYSEIVCRSIPPPGPQRPQQ | not soluble
15 | MSYYHHHHHHLESTSLYKKAGMSDFYDPRERDPSVSRRPQNRQSDEWIRELLLRGTIARVATLWQGEDGAAFPFITPLAYAYRPEQGDLVYHTNVVGRLRANAGQGHPATLEVSEIGQFLPSNSPLELSVQYRSVMVFGTARVLAGEDARAALTTLSERVFPGLKVGETTRPISEDDLKRTSVYSLSIDRWSGKENWAEQAIQEEDWPALGPEWLG | soluble
16 | MGSDKIHHHHHHMGGIGLRRLGCGEAIQIGGDTRAGPVVQIESADHVQSGGDGKGLDTPSIGPDPKRVAVIGHHHVEGAIGVPVQIGKGLSGVHGIGMIQGFEYQFAARPLARRRAQRSDAVENGRHDAGIVDTQPGPPRQLVQPGHHFGAVVPPTARTIPGPGVHLVAIGGDDQRPLVARAAKQNKSAHSQKSVSSGLSARYNTTCVHRFHPVGAKHRKGYGTRLIMTAFDDREKAFEAKYRLDQEQEFKARIRRDKLLGLWAAEQMGISGDAAKTYALSVVDVEFDATDRDAGHKIVRDFIASGITLDEAAIRHQMAVLLEIAREQIVTEMGRP | not soluble
17 | MSLGTSWQIGDVTIPNRVVVAPMAGVTNVAFRMICKAFGAGLVECEMISGQGIHYHNQRTLRMMAVNAQEHPMSIQIFGGTQETLVQAAQFVDQQTAADIIDINMGCPVNKVVNTDAGAKWLLDPQKVHDMVAAVVAAVKKPVTVKMRTGWDDHHIFAVDNALAAQRAGAAAVAMHGRTRKQMYQGQADWQILAEVAQHLTIPFMGNGDVRTPQDAQRMLNEVGADAVMIGRAVMGNPWLLQRINHYLATDELLAEPTPQEKTTIALEHLHKLCVAKGPVEGPRDFRNQVAYYLKGIPHTARTKVAITDATEEAVMHDLLVKFLERMTATIEGHHHHHH | not soluble
18 | YKKGIKPDLESITLCREDYESSGGKEIFLSFEDTKNDLLIGYLRLRIPNNPFRKEITDKSALIRQVHVCGQQKELEGNSKELSWQHKGYGRLLIDEAEKIAKEEFEKDQMLINSGIGVREYYKKLRYKRVGPYMGKNLK | not soluble
19 | NIDGYNELTVGELTGPTTIETFPTPDLPGGLAGGVSWGPDAERFAVSVTGRTVNTNVFVVETETGESEQWTAASTAGIPQETLIEPEVVRFDSFDGREIPALFSPPDGAADGAGADGDTPVIVDIHGGPESQRRPSFSGLTQYFLSRGYAVFEPNVRGSTGYGKAYTHLDDVEKRMDSVKDLRAGVDWLHNHPAVDPDRIVAMGGSYGGFMVLAALTEYPDLWAAGVDVVGIANFVTFLENTGDWRRELREAEYGSLDTDREFLESISPINNVDRINAPLFVLHGANDPRVPVGEAEQIAEQAAEQGVPVEKLVFDDEGHGISKRENRIEAYTAVVEFLDDHV | not soluble
20 | MGHHHHHHSHMAFCAILLVPSLCRMPSLPTSPWAFPVHWAGFMFKPLDWQGNDFFPPQDEVLAPCLGIKTPLKHEPCASLPFSVLFQSSASQSLLGTMGSLSPHLCGHTMCPVNPELPLSFQADHRSAQPDACSPLCHPSSLLPSFHTASLPFSIHAHHSPLPCDLDPPLYLAETVSLLEEWGPPSSCPMQCKLTSHPARLTHLPPCLWGFAVALKPSWAGLAPSLLPPPRMSLCRPLSFLRHQCPWLPWQAHQGLVPWSPSMVAAACIVSPSGHCRCQPFIPHVFLGHGGLTSVSGECG | not soluble
21 | RPAVFPRMGVLPARVALLGQGQHWGVDFCLNVFRANFAEDREIQSEDVVRDLLRAQDLDADALIAQARQESTKEALRKQVDRARALGIFGAPTFMVDGEMFWGNDRLED | not soluble
22 | MKSDWSTDFFHQSQTPNPYPPIVQQQQQPPHTSSSFFNTNHQLNSHYSSPIHQPPTSLHQPIPMMQNQFKASPPQSDQETAPTTPGSGSGGQMKGERCVGCGSESAIRVHYGASSCHGCKAFFRRSVFEGRVYMCSADNHCDITNESRNRCRACRLRNCLEGGMNPKHVREERSKIERMPGNTCTVSAANGVSHSSSAASASPEHKFSFSLSTIAPSTSTGSFSSGSQPAPIESTNSSGSEAEVLDRKLIQENQLTLFMVALEKQTEQLTDDDVKDNDVMGAWSRDITLTFGLQHPQMVIKRLPLKYSCDRIMEAADLYLSWYRSFVFAADWAMGIPEFRVLPLADQTTLFKQNFMAFGWITFAYKCFELKQHLTGMPLGNGAYIPYNDEDQKKLPERWAQTYGVVCRKLIDLIVKAMIELQITEEEYCLIKTISLFQQDCILSEAGQGICSRMRDRLLDALSAHIEKRYPYHTTSQRMTRALKISLMLPSFSHIGQVESTLITQLTAADLHQLSGVPMEICTAQTTL | not soluble
23 | MGSDKIHHHHHHMVNFLNEGGYVLDFSTADFDAFTYKSIGVPLCETYRLSKGKSLIAYINDTKYEDKIKLLSDLIRYYELSSMKEHDEENRKSRAVAYKKCRSILDKAGGTMVMTATAETLKEAFDSDYISAQIDLMLNLKDGNPTEAIGKAKELIESCCKTILEFEGCTVDKDWEVPRLVDETFKHFHLMPKNISDDVKGAKSIKAILGNLKAIAQGVAELRNLYGSGHGKSSSYKGLESRHASLAIGSSTTLVRFLWDSYERHHNNEVN | not soluble
24 | MNKQPGQQPLRSLSLTSAAKSPEEVEPEQDSKKGEPRAKAAGFGGGGGGGKRLPEARSTPMVIPNQVAAMPVQMTGFVQLVANNILSAIAHTNSVMVVQCIKPLEIFTGFETPNRYVVHDMYCRPLLYCMERSNIFARQYEGNDRNFGMQIMDTHGAQVMTCFRGRPCCSTDDFLSTQFLDQQIGMMKKECCNPNFELVGSGCNQPLLIQSPGCAGCGGTQKFPVMTFNGVLVGEIVRLYPGFMQEMFTDADTYIVHFPMDMPPILKLLLVTSVFLIDFTYFEDRNQDQHRNGGMHSGMHSSF | not soluble
